According to IntAct's records for PubMed 26192437:

B1: CDK5 regulatory subunit-associated protein 2 (Homo sapiens), Q96SN8 (parent)
chain: MMDLVLEEDVTVPGTLSGCSGLVPSVPDDLDGINPNAGLGNGLLPNVSEETVSPTRARNMKDFENQITELKKENFNLKLRIYFLEERMQQEFHGPTEHIYKTNIELKVEVESLKRELQEREQLLIKASKAVESLAEAGGSEIQRVKEDARKKVQQVEDLLTKRILLLEKDVTAAQAELEKAFAGTETEKALRLRLESKLSEMKKMHEGDLAMALVLDEKDRLIEELKLSLKSKEALIQCLKEEKSQMACPDENVSSGELRGLCAAPREEKERETEAAQMEHQKERNSFEERIQALEEDLREKEREIATEKKNSLKRDKAIQGLTMALKSKEKKVEELNSEIEKLSAAFAKAREALQKAQTQEFQGSEDYETALSGKEALSAALRSQNLTKSTENHRLRRSIKKITQELSDLQQERERLEKDLEEAHREKSKGDCTIRDLRNEVEKLRNEVNEREKAMENRYKSLLSESNKKLHNQEQVIKHLTESTNQKDVLLQKFNEKDLEVIQQNCYLMAAEDLELRSEGLITEKCSSQQPPGSKTIFSKEKKQSSDYEELIQVLKKEQDIYTHLVKSLQESDSINNLQAELNKIFALRKQLEQDVLSYQNLRKTLEEQISEIRRREEESFSLYSDQTSYLSICLEENNRFQVEHFSQEELKKKVSDLIQLVKELYTDNQHLKKTIFDLSCMGFQGNGFPDRLASTEQTELLASKEDEDTIKIGEDDEINFLSDQHLQQSNEIMKDLSKGGCKNGYLRHTESKISDCDGAHAPGCLEEGAFINLLAPLFNEKATLLLESRPDLLKVVRELLLGQLFLTEQEVSGEHLDGKTEKTPKQKGELVHFVQTNSFSKPHDELKLSCEAQLVKAGEVPKVGLKDASVQTVATEGDLLRFKHEATREAWEEKPINTALSAEHRPENLHGVPGWQAALLSLPGITNREAKKSRLPILIKPSRSLGNMYRLPATQEVVTQLQSQILELQGELKEFKTCNKQLHQKLILAEAVMEGRPTPDKTLLNAQPPVGAAYQDSPGEQKGIKTTSSVWRDKEMDSDQQRSYEIDSEICPPDDLASLPSCKENPEDVLSPTSVATYLSSKSQPSAKVSVMGTDQSESINTSNETEYLKQKIHDLETELEGYQNFIFQLQKHSQCSEAIITVLCGTEGAQDGLSKPKNGSDGEEMTFSSLHQVRYVKHVKILGPLAPEMIDSRVLENLKQQLEEQEYKLQKEQNLNMQLFSEIHNLQNKFRDLSPPRYDSLVQSQARELSLQRQQIKDGHGICVISRQHMNTMIKAFEELLQASDVDYCVAEGFQEQLNQCAELLEKLEKLFLNGKSVGVEMNTQNELMERIEEDNLTYQHLLPESPEPSASHALSDYETSEKSFFSRDQKQDNETEKTSVMVNSFSQDLLMEHIQEIRTLRKRLEESIKTNEKLRKQLERQGSEFVQGSTSIFASGSELHSSLTSEIHFLRKQNQALNAMLIKGSRDKQKENDKLRESLSRKTVSLEHLQREYASVKEENERLQKEGSEKERHNQQLIQEVRCSGQELSRVQEEVKLRQQLLSQNDKLLQSLRVELKAYEKLDEEHRRLREASGEGWKGQDPFRDLHSLLMEIQALRLQLERSIETSSTLQSRLKEQLARGAEKAQEGALTLAVQAVSIPEVPLQPDKHDGDKYPMESDNSFDLFDSSQAVTPKSVSETPPLSGNDTDSLSCDSGSSATSTPCVSRLVTGHHLWASKNGRHVLGLIEDYEALLKQISQGQRLLAEMDIQTQEAPSSTSQELGTKGPHPAPLSKFVSSVSTAKLTLEEAYRRLKLLWRVSLPEDGQCPLHCEQIGEMKAEVTKLHKKLFEQEKKLQNTMKLLQLSKRQEKVIFDQLVVTHKILRKARGNLELRPGGAHPGTCSPSRPGS

Variants of: B1
Settings: with tbg1_human TUBG1, P23258
tbg1_human TUBG1, P23258, sequence (P23258 whole entry): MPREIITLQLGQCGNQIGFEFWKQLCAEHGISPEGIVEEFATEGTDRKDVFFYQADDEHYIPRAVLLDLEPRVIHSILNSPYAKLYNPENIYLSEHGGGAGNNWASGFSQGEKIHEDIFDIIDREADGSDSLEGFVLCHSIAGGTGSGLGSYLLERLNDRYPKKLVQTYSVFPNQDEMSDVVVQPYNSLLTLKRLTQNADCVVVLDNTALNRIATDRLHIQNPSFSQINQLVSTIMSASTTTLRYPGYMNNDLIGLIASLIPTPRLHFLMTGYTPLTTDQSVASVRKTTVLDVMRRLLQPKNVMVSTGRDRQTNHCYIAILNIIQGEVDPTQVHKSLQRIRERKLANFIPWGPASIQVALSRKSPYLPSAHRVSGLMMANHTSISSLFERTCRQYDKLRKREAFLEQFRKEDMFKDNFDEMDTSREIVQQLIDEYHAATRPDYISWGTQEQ

effect of a mutation on the interaction | Variant
decreasing interaction strength | S140A
